In article PMC12520249 (Nature, 2025):

Biological target: the molecule itself
Assay: cryo-EM structure

Row | Protein | binding result
1 | hGluD2(R710W), human GluD2 with the cerebellar ataxia mutation R710W (receptor, UniProt O43424-1 24-1007, looked up) DSIIHIGAIFDESAKKDDEVFRTAVGDLNQNEEILQTEKITFSVTFVDGNNPFQAVQEACELMNQGILALVSSIGCTSAGSLQSLADAMHIPHLFIQRSTAGTPRSGCGLTRSNRNDDYTLSVRPPVYLHDVILRVVTEYAWQKFIIFYDSEYDIRGIQEFLDKVSQQGMDVALQKVENNINKMITTLFDTMRIEELNRYRDTLRRAILVMNPATAKSFITEVVETNLVAFDCHWIIINEEINDVDVQELVRRSIGRLTIIRQTFPVPQNISQRCFRGNHRISSTLCDPKDPFAQNMEISNLYIYDTVLLLANAFHKKLEDRKWHSMASLSCIRKNSKPWQGGRSMLETIKKGGVSGLTGELEFGENGGNPNVHFEILGTNYGEELGRGVRKLGCWNPVTGLNGSLTDKKLENNMRGVVLRVVTVLEEPFVMVSENVLGKPKKYQGFSIDVLDALSNYLGFNYEIYVAPDHKYGSPQEDGTWNGLVGELVFKRADIGISALTITPDRENVVDFTTRYMDYSVGVLLRRAEKTVDMFACLAPFDLSLWACIAGTVLLVGLLVYLLNWLNPPRLQMGSMTSTTLYNSMWFVYGSFVQQGGEVPYTTLATRMMMGAWWLFALIVISSYTANLAAFLTITRIESSIQSLQDLSKQTEIPYGTVLDSAVYEHVRMKGLNPFERDSMYSQMWWMINRSNGSENNVLESQAGIQKVKYGNYAFVWDAAVLEYVAINDPDCSFYTIGNTVADRGYGIALQHGSPYRDVFSQRILELQQNGDMDILKHKWWPKNGQCDLYSSVDTKQKGGALDIKSFAGVFCILAAGIVLSCFIAMLETWWNKRKGSRVPSKEDDKEIDLEHLHRRVNSLCTDDDSPHKQFSTSSIDLTPLDIDTLPTRQALEQISDFRNTHITTTTFIPEQIQTLSRTLSAKAASGFTFGNVPEHRTGPFRHRAPNGGFFRSPIKTMSSIPYQPTPTLGLNLGNDPDRGTSI | binds
2 | hGluD2(ΔATD), human GluD2 with the amino-terminal domain deleted (receptor, UniProt O43424-1 24-1007, looked up) DSIDKKLENNMRGVVLRVVTVLEEPFVMVSENVLGKPKKYQGFSIDVLDALSNYLGFNYEIYVAPDHKYGSPQEDGTWNGLVGELVFKRADIGISALTITPDRENVVDFTTRYMDYSVGVLLRRAEKTVDMFACLAPFDLSLWACIAGTVLLVGLLVYLLNWLNPPRLQMGSMTSTTLYNSMWFVYGSFVQQGGEVPYTTLATRMMMGAWWLFALIVISSYTANLAAFLTITRIESSIQSLQDLSKQTEIPYGTVLDSAVYEHVRMKGLNPFERDSMYSQMWRMINRSNGSENNVLESQAGIQKVKYGNYAFVWDAAVLEYVAINDPDCSFYTIGNTVADRGYGIALQHGSPYRDVFSQRILELQQNGDMDILKHKWWPKNGQCDLYSSVDTKQKGGALDIKSFAGVFCILAAGIVLSCFIAMLETWWNKRKGSRVPSKEDDKEIDLEHLHRRVNSLCTDDDSPHKQFSTSSIDLTPLDIDTLPTRQALEQISDFRNTHITTTTFIPEQIQTLSRTLSAKAASGFTFGNVPEHRTGPFRHRAPNGGFFRSPIKTMSSIPYQPTPTLGLNLGNDPDRGTSI | binds
